Results published in paper PMC12333503.

Molecular target: FLAG-tagged TDP-marginal peptide 20 (TDP-MP20), shortened splicing isoform of TDP-43 (human (cDNA cloned from HEK293T cells))
Test: co-IP; HEK293T cells co-overexpressing a FLAG-tagged TDP-43 isoform and FL-Venus; IP with anti-DDDDK (FLAG) antibody, 3 h at 4°C, Protein G Mag Sepharose beads, three low-salt washes and one high-salt wash; Venus signal normalised to FLAG signal in the IP (n = 3)

Sequence of FLAG-tagged TDP-marginal peptide 20 (TDP-MP20), shortened splicing isoform of TDP-43 (human (cDNA cloned from HEK293T cells)) (Q13148 whole entry, canonical isoform): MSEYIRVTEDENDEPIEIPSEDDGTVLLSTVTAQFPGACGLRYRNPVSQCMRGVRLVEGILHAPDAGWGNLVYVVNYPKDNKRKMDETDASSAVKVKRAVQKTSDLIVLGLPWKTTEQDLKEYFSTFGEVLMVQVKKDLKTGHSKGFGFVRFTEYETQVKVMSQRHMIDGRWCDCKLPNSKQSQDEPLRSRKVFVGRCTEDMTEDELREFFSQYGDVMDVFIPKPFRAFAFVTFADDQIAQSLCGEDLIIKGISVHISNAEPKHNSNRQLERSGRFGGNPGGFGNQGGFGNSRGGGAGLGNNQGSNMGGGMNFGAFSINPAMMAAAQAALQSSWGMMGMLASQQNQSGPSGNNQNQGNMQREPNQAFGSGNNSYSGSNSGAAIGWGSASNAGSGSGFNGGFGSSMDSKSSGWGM

Substance: TDP-FL fused to Venus (from UniProt Q13148 1-414) (natural protein)
- fold of co-precipitated FL-Venus (ratio of FL-Venus to FLAG in the IP) relative to FLAG-FL: 5.7 fold
- fold of co-precipitated FL-Venus (ratio of FL-Venus to FLAG in the IP) relative to FLAG-MP18: 2.3 fold
